Test results from the supplement of paper PMC12764529.
± gives the half width of the 95% confidence interval.

Tests used:
[1] = folding stability dG unfold from trypsin proteolysis; higher = more stable
Outline: (§1)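 Digests were run with trypsin and chymotrypsin at 11 concentrations in threefold dilutions, plus a no-protease condition, on designed mini-proteins in a PA-tagged cDNA display construct. The mini-proteins were under 80 residues, had no cysteine, and were kept only when AlphaFold2 dimer inter-PAE was above 15. After sequencing, Bayesian fitting of the counts gave K50, from which unfolding free energy was derived against a sequence-predicted unfolded-state K50 and a shared folded-state K50, per protease or combined.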

[2] = folding stability dG unfold from chymotrypsin proteolysis; higher = more stable
Outline: as §1

[3] = folding stability dG unfold (combined trypsin and chymotrypsin); higher = more stable
Outline: as §1

| Sequence | folding stability dG unfold [1] [kcal/mol] | folding stability dG unfold [2] [kcal/mol] | folding stability dG unfold [3] [kcal/mol] |
| --- | --- | --- | --- |
| SAGGSAGGMKVTISSKGLPATITYYDPRNGTSTTVPINGDPEAAVAALKEATGLDVTDVTVTVESAGGSAGG [r6_763_JUSTAS] | 0.71 ± 0.04 | 0.52 ± 0.11 | 0.617 ± 0.12 |
| SAGGSAGGMKVTSRETTEITVDTSTGKVTITTTTTLSNGTVVPVGTTTVAISELPEELLSEIESSAGGSAGG [r6_469_JUSTAS] | 0.308 ± 0.026 | 0.886 ± 0.019 | 0.707 ± 0.042 |
| SAGGSAGGMLEITVPSRREPDSLEVEITITDPSSNTTTTLRRRFPPGDETSPEEIAEKIAAELSSAGGSAGG [r6_234_JUSTAS] | 0.677 ± 0.13 | 0.332 ± 0.23 | 0.505 ± 0.28 |
| SAGGSAGGMLRIKTKDGKEIEITDDEVRIRFADGKKTVTVPAEKLKEALEAAEKAGMEIVEIEPSAGGSAGG [r6_337_TrROS_Hall] | 0.00945 ± 0.21 | 1.9 ± 0.057 | 1.44 ± 0.16 |
| SAGGSAGGMLSPEEAEAIARALEAAGRPVTELVVTEHPEGTATVTLTVRYPDGSTETLPLSLPASAGGSAGG [r6_762_JUSTAS] | 1.27 ± 0.035 | 0.782 ± 0.1 | 1.05 ± 0.2 |
| SAGGSAGGMLTTQETSSDPATNLTTTTTTLTEKDASGNLVPLETTVTTTTSPPAPSTTAPTYAASAGGSAGG [r6_901_JUSTAS] | 1.89 ± 0.061 | 0.432 ± 0.024 | 1.29 ± 0.089 |
| SAGGSAGGMMYVVKITNEDGETLTIEAESEEEALEAARALAEETGREITRIEVRRLSKEEEEEESAGGSAGG [r6_162_TrROS_Hall] | 2.28 ± 0.06 | 2.787 ± 0.021 | 2.64 ± 0.064 |
| SAGGSAGGMPIPPEVTEISFSKLPNGTYRLTITTKDGKTLTDVTFPPDLDPETAVEAAIATVAASAGGSAGG [r6_436_JUSTAS] | 1.45 ± 0.028 | 1.48 ± 0.06 | 1.5 ± 0.053 |
| SAGGSAGGMPLLPLNKEVRVLSVSYIPPNDVVVVRVKGLDNVESTILIPVSLAKNIPISPDSTLSAGGSAGG [r6_910_TrMRF] | 0.944 ± 0.024 | 0.44 ± 0.059 | 0.733 ± 0.056 |
| SAGGSAGGMPPELSEEEVVRRAVERAVRELGVPLEELPPDWRVDARVERVGDEWLVEVDIELPASAGGSAGG [r6_740_TrMRF] | 1.33 ± 0.037 | 1.68 ± 0.074 | 1.57 ± 0.083 |
| SAGGSAGGMPTLVVLREVAEKLEEGQRVRVRFRIPGTDEWVEAEVPINDPELVINFENPEVEEASAGGSAGG [r6_401_TrMRF] | 1.06 ± 0.042 | 1.48 ± 0.097 | 1.33 ± 0.12 |
| SAGGSAGGMPVTPEEARAIAEELRAELGATTVEVEVSPDGRTVTITITSSEDGKVLTRTIEFEASAGGSAGG [r6_550_JUSTAS] | 2.25 ± 0.091 | 2.33 ± 0.036 | 2.29 ± 0.059 |
| SAGGSAGGMRVRLTFPDGSVVELDLSSLPFSPEEVERAGEEELRALLEEAYPDREIELERVPEPSAGGSAGG [r6_165_JUSTAS] | 2.13 ± 0.056 | 2.93 ± 0.032 | 2.63 ± 0.051 |
| SAGGSAGGMRYVTVTVTVPSNGKKYTYTKEIAPDEVFNISEAELAAEFGYPDVVVTVSESPIEDSAGGSAGG [r6_722_JUSTAS] | 2.19 ± 0.074 | 3.39 ± 0.022 | 3.08 ± 0.076 |
| SAGGSAGGMSIKVEVPGPYTVKIYRPDGKPIGEIEGEPGSVIEIDLNVPPGEAKNLIIEVYPTDSAGGSAGG [r6_471_TrMRF] | 1.61 ± 0.074 | 2.58 ± 0.067 | 2.2 ± 0.24 |
| SAGGSAGGMSITINLPNGVTLTITTGDNDVYPITITYPGGETKTLTVTEPLSSISQVISNIVNSSAGGSAGG [r6_27_JUSTAS] | 3.38 ± 0.069 | 3.28 ± 0.035 | 3.33 ± 0.042 |
| SAGGSAGGMTFKDPNSNTTASVTEVTPTSVTVTYTLSDGTTRTVTVPTSLVTPDSTVPFTVTSSSAGGSAGG [r6_152_JUSTAS] | 0.983 ± 0.032 | 0.789 ± 0.16 | 0.892 ± 0.064 |
| SAGGSAGGMTIKIEVNGKIIEIELPEGIKEITKIEIKKDGTITLYIKDNKKKITIKLDKLKKLKSAGGSAGG [r6_369_TrROS_Hall] | 1.2 ± 0.09 | 3.01 ± 0.1 | 2.34 ± 0.27 |
| SAGGSAGGMTITISTGSSGLTVNITLTPPTGPPVTVTISFDPSELEEFLKELPDYEIESITVEGSAGGSAGG [r6_879_JUSTAS] | 2.79 ± 0.17 | 2.73 ± 0.15 | 2.8 ± 0.13 |
| SAGGSAGGMTITTTENPNSNLTTYDVTIGNTKVTVTVNPNNPGVIKTEGDNDVPVEVVINAVLSSAGGSAGG [r6_197_JUSTAS] | 1.69 ± 0.059 | 0.456 ± 0.043 | 1.21 ± 0.056 |
| SAGGSAGGMTPVVVTVTITLPNGEVVEYRVPVAPDELEAAAEAVKEPLEAQGVDVEVEIEAVAASAGGSAGG [r6_721_JUSTAS] | 1.99 ± 0.065 | 1.5 ± 0.033 | 1.7 ± 0.089 |

| Sequence | folding stability dG unfold [1] [kcal/mol] | folding stability dG unfold [2] [kcal/mol] | folding stability dG unfold [3] [kcal/mol] |
| --- | --- | --- | --- |
| SAGGSAGGMTVEIDLDLEVPDGGVRLERLVVDPERPLVLAFLTLEDGTKRVIPFESLEELLERLSAGGSAGG [r6_547_TrMRF] | 1.26 ± 0.064 | 1.21 ± 0.032 | 1.23 ± 0.11 |
| SAGGSAGGMTVTIELPGSTYTVELPSSVKSVSELKVLEDGTLVLTFPSTGTTVTVPIPPPGSHHSAGGSAGG [r6_370_JUSTAS] | 1.03 ± 0.059 | 0.878 ± 0.13 | 1.01 ± 0.11 |
| SAGGSAGGMVEEIIEEFKKKGYNPEVEVRKTSPETTVVTLKLPDKEVIVEVKPLTPEELEEILRSAGGSAGG [r6_786_JUSTAS] | 0.371 ± 0.052 | 1.05 ± 0.089 | 0.824 ± 0.15 |
| SAGGSAGGMVTTKELPSNKTVTVTVTPDPVAGREGATVKPPSTSETKNFGDPAAAAAMSPEKLSSAGGSAGG [r6_740_JUSTAS] | 0.42 ± 0.034 | 0.2 ± 0.071 | 0.29 ± 0.15 |
| SAGGSAGGMVVYLQLPDKEATFFVPPSLSEEEVKERLKKALGDPDAPLTNLKIEEATPEELALESAGGSAGG [r6_122_JUSTAS] | -0.153 ± 0.095 | 0.515 ± 0.2 | 0.222 ± 0.13 |
| SAGGSAGGMVYITVDIKKTDPLNGTEREEVITVKVNPDEVEKVIEELKSAPVNVEILKVTIIPPSAGGSAGG [r6_151_JUSTAS] | 1.75 ± 0.075 | 1.4 ± 0.043 | 1.56 ± 0.065 |
| SAGGSAGGMYVIRVKIYDKETGELIEELTLVFDSEEEAERAVRELAAALPPDVRVEVEIVKLPPSAGGSAGG [r6_688_TrROS_Hall] | 5.01 ± 0.18 | 4.85 ± 0.059 | 4.99 ± 0.096 |
| SAGGSAGGNIDPDDITEVEEETYNFPNGWHIKIDYFRVPDDGQPIMKMEIEPMPPVKPDPNDKKSAGGSAGG [r6_758_TrROS] | -0.1 ± 0.11 | 1.23 ± 0.14 | 0.627 ± 0.25 |
| SAGGSAGGNIKVKVPYERHPDYYYMTVTIYDPGDDKKLELSYMFPPGTKMPAEEWARDIVKDILSAGGSAGG [r6_234_TrROS] | 0.789 ± 0.091 | 1.29 ± 0.1 | 1.13 ± 0.13 |
| SAGGSAGGNITPEAKKLVEELADQISEEFPNNGMDIEVEDITWQPDGNVVIRIRFNGWTIWIPVSAGGSAGG [r6_495_TrROS] | 1.44 ± 0.083 | 2.25 ± 0.05 | 2.03 ± 0.16 |
| SAGGSAGGPANKKYLLVADAEVDPETGTVKVTVEYPNGKKVEFTFPAKNFHPDEKVLVPVVVTDSAGGSAGG [r6_768_TrMRF] | 1.02 ± 0.052 | 0.67 ± 0.17 | 0.86 ± 0.1 |
| SAGGSAGGPEIRITEARRDPNGMFTFIVEIPPEDLDNIKPGEEIEITFNGQEFNFNVQIIPADDSAGGSAGG [r6_373_TrROS] | 0.257 ± 0.14 | 1.13 ± 0.2 | 0.716 ± 0.29 |
| SAGGSAGGPETIPLRFGEEEVLLVLSPEDPDRFLAYFPAEGRVYLYRLLPEGLEFLREVPAEELSAGGSAGG [r6_915_TrMRF] | 2.1 ± 0.066 | 2.03 ± 0.13 | 2.07 ± 0.1 |
| SAGGSAGGPEVTITVEEKDGYLVLTVTVPPGVERLELTIEVNGKLVTLELELKPGQTLTFVLPPSAGGSAGG [r6_971_TrROS_Hall] | 4.6 ± 0.3 | 3.86 ± 0.12 | 3.97 ± 0.13 |
| SAGGSAGGPEVYPVPGLTPEQFRELVERHGGRLRVVLPGGEEVELDFTRDSRPIPGKPAVVVFGSAGGSAGG [r6_303_TrMRF] | 0.498 ± 0.019 | -0.544 ± 0.12 | 0.12 ± 0.048 |
| SAGGSAGGPFKIKITEIFLIPFEPGEMIMIEIRFPNGKVYYIMLQVNPGNGWIWIAIMEIKPPDSAGGSAGG [r6_337_TrROS] | 3.91 ± 0.35 | 5.1 ± 0.12 | 4.74 ± 0.33 |
| SAGGSAGGPIKIKAKIFDPNGQPQEHEGEIDNPNGEPYKIKIDIFVLPDPDDEPNLVINVEIEPSAGGSAGG [r6_335_TrROS] | 1.38 ± 0.11 | 3.33 ± 0.17 | 2.77 ± 0.13 |
| SAGGSAGGPKIRIEIEHYDNYIVISIRIPPGMPPGQEIKFEIGGYPVKVTYDPEDGWMTISFPASAGGSAGG [r6_267_TrROS] | 3.24 ± 0.076 | 3.06 ± 0.082 | 3.2 ± 0.14 |
| SAGGSAGGPKTKTVDFIVPALDENGNPLPDNAKFTFKLPDKTINIDFKRDKDSDYVLVKATITNSAGGSAGG [r6_657_TrMRF] | 0.197 ± 0.11 | 0.901 ± 0.14 | 0.625 ± 0.098 |
| SAGGSAGGPLVFEADATGTAPDDKELVIERVLVVVDPVRGEAHLYARIPGTGEWRYLGTFDLKDSAGGSAGG [r6_329_TrMRF] | 2.91 ± 0.093 | 3.315 ± 0.023 | 3.21 ± 0.082 |
| SAGGSAGGPSLRLTFPFPPGFSVTIELFPDGTARITIHNSDGSLLLSFSIPLPPVIPPDPSSLLSAGGSAGG [r6_238_TrMRF] | 3.33 ± 0.17 | 2.63 ± 0.084 | 2.84 ± 0.38 |
